# Data: article PMC9272825 (The Journal of Physical Chemistry. B, 2022)
# “And” between values parts separate entries of the source, which are not always exact repeats. Equal values may be shown once.
# Target: N-terminal domain of enzyme I (EIN) (UniProt P08839 1-249)
# Assay: NMR titration
binder,measurement,value
Histidine phosphocarrier protein (HPr) (natural protein) not shown,Kd,2820 nM and 2450 nM and 3030 nM and 3020 nM
